From the RNAGym collection of RNA variant scans (doi:10.7554/elife.90254)

B1: LINE1-mini (parent)
chain: GGCAGAGCUCAACACAGCGUGGCAAAGUGGCUGUGGCUAGACUGCC

Variants of: B1
Test: self-cleavage, relative activity (ratio to wild type); higher = more cleavage; in vitro, sequencing; the parent is a self-cleaving ribozyme

Variant	self-cleavage
C18G G27A	1.04
C18G G27C	0.38
C18G G27U	0.61
G17U U34C	0.05
G17U U34A	0.05
G17U U34G	0.04
C18A G19A	1.05
C18A G19U	0.31
C18A G19C	1.27
G19A A26U	1.89
G19A A26C	0.52
G19A A26G	0.98
G17U G44A	0.07
G17U G44U	0.06
G17U G44C	0.05
G17U C42U	0.06
G17U C42G	0.06
G17U C42A	0.05
G17U U28C	1.16
G17U U28G	0.1
G17U U28A	0.17
C18A C31G	0.04
C18A C31U	0.04
C18A C31A	0.16

Variant	self-cleavage
C18G	0.52
C18A	0.85
C18U	1.21
G17U C37G	0.03
G17U C37A	0.1
G17U C37U	0.05
C18U C46G	1.24
C18U C46U	1.43
C18U C46A	0.46
C18U G44A	0.22
C18U G44U	0.07
C18U G44C	0.28
C18U G21U	2.05
C18U G21C	1.13
C18U G21A	2.7
C18U A25U	0.7
C18U A25G	0.26
C18U A25C	0.86
C18U A24U	0.97
C18U A24G	1.01
C18U A24C	0.39
C18G G33C	0.03
C18G G33U	0.07
C18G G33A	0.04

Variant	self-cleavage
C18U U38A	0.75
C18U U38G	0.01
C18U U38C	0.27
C18A G29C	0.83
C18A G29U	1.07
C18A G29A	0.69
C18U G22C	1.47
C18U G22U	1.21
C18U G22A	1.76
C18A C46A	0.95
C18A C46U	0.65
C18A C46G	0.47
C18U G27U	1.63
C18U G27A	0.84
C18U G27C	0.55
C18G A26C	0.86
C18G A26G	0.22
C18G A26U	0.42
C18A G44C	0.22
C18A G44A	0.2
C18A G44U	0.08
C18G U34G	0.02
C18G U34C	0.03
C18G U34A	0.05

Variant	self-cleavage
C18G U38C	0.16
C18G U38A	0.38
C18G U38G	0.02
C18G G21A	0.77
C18G G21C	0.62
C18G G21U	1.38
C18U G40C	0.04
C18U G40U	0.12
C18U G40A	0.1
G17U G27C	0.22
G17U G27U	0.35
G17U G27A	0.38
C18A A25C	0.36
C18A A25G	0.19
C18A A25U	1.21
C18U U34C	0.07
C18U U34G	0.03
C18U U34A	0.07
C18A C23U	1.29
C18A C23A	1.02
C18A C23G	0.76
C18U C23A	1.27
C18U C23G	1.56
C18U C23U	1.07

Variant	self-cleavage
G17U G33C	0.02
G17U G33A	0.06
G17U G33U	0.05
C18G A24U	0.76
C18G A24C	0.17
C18G A24G	0.44
G17U C31A	0.88
G17U C31U	0.11
G17U C31G	1.67
C18A A26G	0.57
C18A A26C	2.92
C18A A26U	0.69
C18G C31A	0.06
C18G C31G	0.04
C18G C31U	0.02
G17U G30U	0.16
G17U G30C	0.59
G17U G30A	0.82
C18A C45G	0.14
C18A C45A	0.24
C18A C45U	0.58
G17U G21A	0.3
G17U G21U	0.36
G17U G21C	1.31

Variant	self-cleavage
C18U G30U	0.4
C18U G30A	1.78
C18U G30C	1.82
C18G G36C	0.08
C18G G36U	0.07
C18G G36A	0.1
C18U G29U	1.87
C18U G29A	1.77
C18U G29C	0.86
G17U G40A	0.05
G17U G40U	0.06
G17U G40C	0.17
C18U U43A	0.06
C18U U43C	0.09
C18U U43G	0
G17U C46G	0.12
G17U C46A	0.13
G17U C46U	0.16
C18G C46G	0.25
C18G C46A	0.43
C18G C46U	0.4
C18G U28G	0.22
C18G U28C	0.36
C18G U28A	0.39

Variant	self-cleavage
C18A U32G	0.04
C18A U32A	0.05
C18A U32C	0.16
C18G U20A	0.41
C18G U20C	0.4
C18G U20G	0.41
C18A G30A	1.63
C18A G30U	1.55
C18A G30C	1.99
G17U U20C	0.64
G17U U20A	0.16
G17U U20G	0.12
C18G U43A	0.07
C18G U43G	0.13
C18G U43C	0.06
C18G C23A	0.64
C18G C23U	0.89
C18G C23G	0.66
C18A U34G	0.04
C18A U34A	0.03
C18A U34C	0.06
C18U U32A	0.04
C18U U32G	0.09
